# Data taken from paper PMC9065369 (Cell Reports, 2022).
# B1: hsHDAC6 (1108-1215) (domain or fragment)
# chain: TPLPWCPHLVAVCPIPAAGLDVTQPCGDCGTIQENWVCLSCYQVYCGRYINGHMLQHHGNSGHPLVLSYIDLSAWCYYCQAYVHHQALLDVKNIAHQNKFGEDMPHPH
# Target: Mono ubiquitin (UniProt P0CG48 1-76)
# Assay: ITC
binder,measurement,value
B1,Kd,5.16 ± 0.47 µM
